The values that follow come from patent publication US20210079109A1 (Regeneron, published 2021).

The target of test [1] is T1, human CD63 (human, UniProt P08962 2-238).
T1 construct: stably transfected in NIH3T3/hCD63; The cell line is named under assay; also called hCD63
T1 sequence: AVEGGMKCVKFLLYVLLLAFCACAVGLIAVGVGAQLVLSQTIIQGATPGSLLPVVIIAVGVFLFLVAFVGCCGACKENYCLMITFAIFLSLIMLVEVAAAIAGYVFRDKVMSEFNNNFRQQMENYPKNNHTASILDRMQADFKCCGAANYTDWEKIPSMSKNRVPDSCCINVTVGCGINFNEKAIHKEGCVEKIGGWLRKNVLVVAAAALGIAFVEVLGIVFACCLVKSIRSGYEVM
Kind of test: ECL, NIH3T3/hCD63 cells. A digest of the protocol: (§1)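 Detached cells (~2.0×10⁴/well: NIH3T3/hCD63, LNCAP, U87MG, or parental NIH3T3 as negative control) were plated on carbon-electrode plates and blocked with 2% BSA. Anti-CD63 or isotype antibodies (1.7 pM–100 nM, in duplicate) were bound 1 h at RT, then washed. Signal read as electrochemiluminescence.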

Test [2] concerns the target T1, human CD63. Kind of test: ECL, U87MG cells. A digest of the protocol:
as §1

In test [3] the target is T2, recombinant human CD63 extracellular loop 2 expressed with a C-terminal human Fc tag (human).
T2 construct: also called hCD63 EC loop 2-hFc; human CD63 EC loop 2-Fc
The experiment in a line: SPR Biacore, mAb captured, 37C. A digest of the protocol:
(§2)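 Anti-CD63 mAbs captured on anti-mouse Fc or anti-human Fab surfaces; CD63 EC2 reagents flowed in HBS-ET, pH 7.4, at 25° C or 37° C. ka and kd from 1:1 binding model with mass transport limitation; KD and t½ calculated from kinetic rates.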

In test [4] the target is T3, recombinant human CD63 extracellular loop 2 expressed with a C-terminal Myc-Myc-hexahistidine (human).
T3 construct: also called hCD63 EC loop 2-MMH; human CD63 EC loop 2-MMH
Kind of test: SPR Biacore, mAb captured, 37C. A digest of the protocol: as §2

Test [5] concerns the target T2, recombinant human CD63 extracellular …. The experiment in a line: SPR Biacore, mAb captured, 25C. The method, boiled down:
as §2

Test [6] concerns the target T3, recombinant human CD63 extracellular …. The experiment in a line: SPR Biacore, mAb captured, 25C. A digest of the protocol:
as §2

The target of test [7] is T1, human CD63. The experiment in a line: ECL, LNCAP cells. The method, boiled down: as §1
Test [8] concerns the target T1, human CD63. The experiment in a line: cell-based or functional assay.
The target in test [9] is T1, human CD63. Kind of test: imaging of stained T47D cells, 10 ug/mL antibody. As to the method: To stain, quadruplicate plates of cells were incubated with 10 μg/mL of anti-CD63 antibodies that was diluted in 2% FBS in PBS, without Calcium and Magnesium (Irving, Cat #9240) (staining buffer) for 30 minutes at 4° C. […] Two plates were immediately fixed and stained with 4% paraformaldehyde (PFA; ThermoFisher, Cat #28908)+5 uM DRAQ5 (ThermoFisher, Cat #62251) in PBS for 20 minutes (non-internalization plates). The remaining two plates were incubated with growth media at 37° C. for 2 hours followed by fixation and staining for 20 minutes using a solution of 4% PFA+5 μM DRAQ5 diluted in PBS (internalization plates). After fixation, all plates were washed once with PBS. One non-internalization plate and one internalization plate were incubated with an anti-Alexa Fluor 488 antibody (Regeneron) at 50 μg/mL in PBS overnight at 4° C. to quench surface Alexa Fluor 488 fluorescence. The remaining plates were incubated with PBS only. Confocal images were acquired on the Opera Phenix (Perkin Elmer) at 40× magnification. Harmony analysis software (Perkin Elmer) was utilized to identify DRAQ5-labeled cells and the total Alexa-Fluor 488 relative fluorescent units (RFU) per cell was determined. The total binding at 4° C. (RFU values of 4° C. unquenched wells), total binding at 37° C. (RFU values of 37° C. unquenched wells), the total internalized RFU, and the % Internalization were determined for each antibody as shown in Table 1. For all calculations, background fluorescence from 2nd Ab only control wells were subtracted from every well. Total internalized RFU was calculated as follows: Total RFU of 37° C. unquenched samples−Surface RFU at 37° C. Surface RFU is defined as unquenched RFU at 37° C.−quenched RFU at 37° C.)/QE. QE (quenching efficiency) is defined as: 1−(Total RFU of 4° C. quenched sample/Total RFU of 4° C. unquenched sample). The % Internalization was determined from the following formula: (Total internalized RFU at 37° C./Total RFU at 37° C.)*100.

T3 sequence (chain, as listed by the source limits assumed): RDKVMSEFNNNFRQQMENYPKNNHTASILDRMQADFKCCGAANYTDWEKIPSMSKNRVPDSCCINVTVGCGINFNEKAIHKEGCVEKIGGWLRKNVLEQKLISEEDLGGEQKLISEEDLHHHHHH
T2 sequence (chain, as listed by the source limits assumed): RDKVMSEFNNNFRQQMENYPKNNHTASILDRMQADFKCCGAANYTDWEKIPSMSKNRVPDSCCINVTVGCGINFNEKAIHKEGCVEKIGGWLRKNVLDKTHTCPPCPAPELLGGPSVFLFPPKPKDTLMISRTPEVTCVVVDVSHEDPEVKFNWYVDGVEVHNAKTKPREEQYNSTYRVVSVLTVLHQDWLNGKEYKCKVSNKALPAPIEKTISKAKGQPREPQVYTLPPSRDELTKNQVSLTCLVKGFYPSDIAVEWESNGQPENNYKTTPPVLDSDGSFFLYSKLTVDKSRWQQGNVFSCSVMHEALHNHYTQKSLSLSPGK

B1: H2M12392N (antibody, V domains shown)
VH: QVQLVESGGGLVKPGGSLRLSCATSGFTFGDYYMNWFRQAPGKGLDWVSYISSSGSTRYYADSVRGRFTISRDNAKNSLYLQMNSLRAEDTAVYYCVRDLRYYYGMDVWGQGTTVTVSS
VL: not shown
notes: also called H2aM12392N
Take B1: in the test with human CD63 [1], the EC50 was 0.4 nM and the “binding ratio at 3.7 nM vs NIH3T3” value was found to be 608 fold. In the test with human CD63 [2], the response was half-maximal at 0.53 nM (EC50) and the “binding ratio at 3.7 nM vs NIH3T3” value turned out to be 405 fold. Also, in test [3], the “100 nM Ag Bound (RU)” value amounted to 177 RU, the Kd was determined as 0.582 nM, the koff was determined as 0.000445 s⁻¹ and the kon is 765000 M⁻¹ s⁻¹. In addition, the t1/2 in test [3] was found to be 26 min. Moreover, in test [4], the “100 nM Ag Bound (RU)” value turned out to be 68 RU, the Kd came to 7.25 nM, the koff came to 0.00324 s⁻¹ and the kon was determined as 447000 M⁻¹ s⁻¹. The t1/2 in test [4] was found to be 4 min. In test [5], the “100 nM Ag Bound (RU)” value is 169 RU, the equilibrium dissociation constant (Kd) stood at 0.391 nM, the koff was 0.000199 s⁻¹ and the kon was determined as 510000 M⁻¹ s⁻¹. In addition, the t1/2 in test [5] was 58 min. For the same molecule, in test [6], the “100 nM Ag Bound (RU)” value is 79 RU, the dissociation constant (Kd) was 3.1 nM, the koff worked out at 0.000922 s⁻¹ and the kon is 298000 M⁻¹ s⁻¹. The t1/2 in test [6] came to 13 min. In the test with human CD63 [7], the concentration for a half-maximal effect (EC50) was determined as 0.23 nM and the “binding ratio at 3.7 nM vs NIH3T3” value came out at 51 fold.

B2: H1M12390N (antibody, V domains shown)
VH: QVHLVESGGGLVKPGGSLRLSCAASGFIFSDYYMSWIRQAPGKGLEWVSYIRGSGYNADSVQGRFTISRDNAKNSLFLQMNSLRAEDTAVYYCARGYSFGYGFFDYWGQGTLVTVSS
VL: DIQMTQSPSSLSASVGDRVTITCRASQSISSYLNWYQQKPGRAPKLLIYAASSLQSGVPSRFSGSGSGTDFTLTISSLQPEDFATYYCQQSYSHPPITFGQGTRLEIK
On to B2, for which the figures for the EC50 with human CD63 [1], with human CD63 [2] and with human CD63 [7] were 0.48 nM, 0.36 nM and 0.3 nM, respectively. Besides, the figures for the “binding ratio at 3.7 nM vs NIH3T3” value with human CD63 [1], with human CD63 [2] and in the test with human CD63 [7] were 559 fold, 339 fold and 31 fold, respectively. Further, the “100 nM Ag Bound (RU)” value came out at 134 RU in test [3], 38 RU in test [4], 150 RU in test [5] and 54 RU in test [6]. Also, the dissociation constant Kd in test [3] was 0.546 nM; in [4], 35.6 nM; in test [5], 1.89 nM; in [6], 10.4 nM. In addition, the koff in test [3] came out at 0.000495 s⁻¹; in [4] it was 0.0149 s⁻¹; in test [5] it was 0.000991 s⁻¹; in test [6] it was 0.00336 s⁻¹. Also, the kon in test [3] worked out at 907000 M⁻¹ s⁻¹; in [4], 419000 M⁻¹ s⁻¹; in test [5], 523000 M⁻¹ s⁻¹; in [6] it was 323000 M⁻¹ s⁻¹. Also, the t1/2 in test [3] is 23 min; in test [4], 1 min; in test [5], 12 min; in test [6], 3 min.

B3: H4H12450N (antibody, V domains shown)
VH: QVQLQESGPKVVKPSETLSLTCTVSGGSISSYYWNWIRQSPGKGLEWIGYTKRGYTDYNPSLRSRVTISEDTSKNQFSLRISSVTAADTAVYYCAQMGWGSHAFDMWGQGTMVAVSS
VL: not shown
As for B3, in the test with human CD63 [8], the “% Internalization, T47D cells” value is 68.1% and the “Total Internalized RFU, T47D cells” value is 1.42e+06 RFU. For the same molecule, in the test with human CD63 [9], the “Total RFU at 4C” value was 2.1e+06 RFU and the “Total RFU at 37C (2 h)” value was determined as 2.08e+06 RFU.

B4: H2M12454N (antibody, V domains shown)
VH: QVQLVESGGGLVKPGGSLRLSCAVSGFTYTDYFMNWIRQAPGKGLEWVSYISNSGAIKYYADSVKGRFTISRDNAKNSLYLQMNGLRADDTAVYYCVRDPRSYYGFDYWGQGTLVTVSS
VL: DIQMTQSPSSLSASVGDRVTITCRASQSISNFLNWYQQKPGKAPRLLIYGASNLQSGVPSRFSGGGSGTDFTLTISSLQPADFATYYCQQSFSNPPVTFGQGTRLEIN
notes: also called H2bM12454N
Regarding B4, in the test with human CD63 [1], the midpoint of the response, the EC50, lay at 0.32 nM and the “binding ratio at 3.7 nM vs NIH3T3” value came to 175 fold. In the test with human CD63 [2], the EC50 was 0.47 nM and the “binding ratio at 3.7 nM vs NIH3T3” value amounted to 132 fold. Also, in [3], the “100 nM Ag Bound (RU)” value came out at 160 RU, the Kd worked out at 0.895 nM, the koff came out at 0.000777 s⁻¹ and the kon worked out at 868000 M⁻¹ s⁻¹. The t1/2 in test [3] was 15 min. In test [4], the “100 nM Ag Bound (RU)” value was 56 RU, the Kd worked out at 10.6 nM, the koff was 0.00591 s⁻¹ and the kon is 559000 M⁻¹ s⁻¹. In addition, the t1/2 in [4] was 2 min. For the same molecule, in test [5], the “100 nM Ag Bound (RU)” value was found to be 142 RU, the Kd is 0.523 nM, the koff was determined as 0.00036 s⁻¹ and the kon was found to be 688000 M⁻¹ s⁻¹. Besides, the t1/2 in [5] is 32 min. For the same molecule, in test [6], the “100 nM Ag Bound (RU)” value is 61 RU, the Kd worked out at 4.89 nM, the koff worked out at 0.00188 s⁻¹ and the kon came out at 384000 M⁻¹ s⁻¹. In [6], the t1/2 worked out at 6 min. In the test with human CD63 [7], the EC50 worked out at 0.18 nM and the “binding ratio at 3.7 nM vs NIH3T3” value was 14 fold.

B5: H2M12385N (antibody, V domains shown)
VH: QVQLVESGGGLVKPGGSLRLSCAASGFTFTDYFMNWIRQAPGKGLEWVSYISNSGAIKYQADSVKGRFTISRDNAKNSLYLQMNSLRADDTAVYYCVRDPRSYYGFDYWGQGTLVTVSS
VL: DIQMTQSPSSLSASVGDRVTITCRASQSIRNFLNWYQQKPGKAPRLLIYAASSLQSGVPSRFSGGGSGTDFTLTISSLQPEDFATYYCQQSYSNPPITFGQGTRLEIK
notes: also called H2bM12385N; H2bM12385
For the molecule B5, the EC50 with human CD63 [1] is 0.45 nM; in the test with human CD63 [2], 0.64 nM; with human CD63 [7] it was 0.29 nM. Further, the “binding ratio at 3.7 nM vs NIH3T3” value in the test with human CD63 [1] worked out at 71 fold; with human CD63 [2] it was 47 fold; with human CD63 [7], 5 fold. Besides, the “100 nM Ag Bound (RU)” value in test [3] is 133 RU; in test [4] it was 44 RU; in test [5], 121 RU; in [6], 48 RU. The Kd in test [3] turned out to be 2.05 nM; in test [4], 40 nM; in [5] it was 1.66 nM; in test [6] it was 10.3 nM. For the same molecule, the koff turned out to be 0.0017 s⁻¹ in test [3], 0.0109 s⁻¹ in test [4], 0.000984 s⁻¹ in test [5] and 0.00331 s⁻¹ in test [6]. Besides, the kon was 827000 M⁻¹ s⁻¹ in [3], 271000 M⁻¹ s⁻¹ in [4], 592000 M⁻¹ s⁻¹ in [5] and 322000 M⁻¹ s⁻¹ in test [6]. Besides, the t1/2 was 7 min in [3], 1 min in test [4], 12 min in [5] and 3 min in test [6].
